Tests used:
human IL-23 [1] = target: T1, human IL-23 (Homo sapiens, UniProt Q9NPF7); experiment: Neutralization assay for human IL-23 (IL-17 secretion by purified mouse splenocytes); format: cell-based; details: for Neutralization of the biological activity of human IL-23: purified IgG of immunized rabbits, result in words; for Average % neutralization, SD: purified rabbit antibodies at a dilution of 1/20, 1 ng/mL bioactive hIL-23
T1 sequence (Q9NPF7 20-189): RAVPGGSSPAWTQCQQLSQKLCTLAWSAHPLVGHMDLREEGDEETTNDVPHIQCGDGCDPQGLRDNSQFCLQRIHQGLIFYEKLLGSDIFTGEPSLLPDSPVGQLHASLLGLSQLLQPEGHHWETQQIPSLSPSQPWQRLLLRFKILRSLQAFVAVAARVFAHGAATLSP
T1 sequence (P29460 23-328 partner): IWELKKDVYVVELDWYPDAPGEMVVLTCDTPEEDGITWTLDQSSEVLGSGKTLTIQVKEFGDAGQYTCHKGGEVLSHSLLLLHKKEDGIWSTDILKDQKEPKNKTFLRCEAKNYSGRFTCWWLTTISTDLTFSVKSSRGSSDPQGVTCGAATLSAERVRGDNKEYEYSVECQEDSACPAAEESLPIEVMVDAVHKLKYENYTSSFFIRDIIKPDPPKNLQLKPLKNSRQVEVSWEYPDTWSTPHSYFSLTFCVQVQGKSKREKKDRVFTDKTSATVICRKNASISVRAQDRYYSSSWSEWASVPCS
Procedure: The neutralization capacity of the purified total IgG fraction derived from the 4 immunized rabbits of example 1 was then tested in a neutralization assay for human IL-23. The test is based on the fact that purified mouse splenocytes secrete IL-17 in a dose dependent fashion, in response to the stimulation with bioactive human IL-23 (cf. FIG. 2). On the x-axis one can see the various dilutions of the IgG tested and on the y-axis the production of IL-17 as an optical density value. One sees that the IgG fraction of rabbits immunized against the peptide neutralize the biological activity of human IL-23 in a dose-dependent fashion. Each bar represents the mean of the tests performed with the 4 purified antibodies; the standard deviation is also indicated. The experimental conditions comprise two negative controls (no human IL-23 and no inhibitor) and a positive control with an anti-hIL-23 neutralizing antibody sold from the company R&D Systems (# ref: AF1716).
(§1) Four New Zealand rabbits were immunized with the cyclised peptide Y-C-KGE PAL LPD SP-C derived from the murine IL-23, similarly as in the protocol described in Example 1. The peptide was coupled with KLH via BDB and a supplementary tyrosine. The sera of the animals were purified by affinity column against protein A and the purified antibodies were tested in ELISA and in neutralisation assays. For ELISA, plates were coated either with murine or with human IL-23 and individual sera were tested at different dilutions to determine the Titer50. The titer corresponds to the dilution corresponding yielding an OD value at 50% of the maximal OD score (obtained for the smallest dilution, 1/50e). In parallel, different dilutions of the purified rabbit antibodies were tested on IL-23 neutralisation assays, similarly as in Examples 2, 3, and 4. Table 1 presents the average neutralisation obtained for the 4 purified antibodies rabbit at a dilution of 1/20 and in the presence of 1 ng/mL of bioactive mIL-23 or hIL-23.

murine IL-23 [2] = target: T2, murine IL-23 (Mus musculus, UniProt Q9EQ14); experiment: Neutralization assay for murine IL-23 (IL-17 secretion by purified mouse splenocytes); format: cell-based; details: purified IgG of immunized rabbits, result in words
T2 sequence (Q9EQ14 22-196): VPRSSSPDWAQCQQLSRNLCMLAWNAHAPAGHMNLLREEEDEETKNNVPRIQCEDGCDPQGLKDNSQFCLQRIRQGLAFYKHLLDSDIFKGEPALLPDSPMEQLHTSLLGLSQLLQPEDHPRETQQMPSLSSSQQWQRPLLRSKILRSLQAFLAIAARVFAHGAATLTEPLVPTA
T2 sequence (P43432 23-335 partner): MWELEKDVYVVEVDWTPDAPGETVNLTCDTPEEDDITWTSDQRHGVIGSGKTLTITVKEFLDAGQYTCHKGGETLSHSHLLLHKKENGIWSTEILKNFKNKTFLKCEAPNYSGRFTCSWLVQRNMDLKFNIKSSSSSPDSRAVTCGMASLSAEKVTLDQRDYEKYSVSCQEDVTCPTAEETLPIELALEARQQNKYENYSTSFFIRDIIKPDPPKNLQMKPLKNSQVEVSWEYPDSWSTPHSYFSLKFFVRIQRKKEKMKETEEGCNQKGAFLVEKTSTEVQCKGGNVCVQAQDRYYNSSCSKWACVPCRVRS
Description: The same IgG fraction from 4 immunized rabbits used in example 2 is used for a test of neutralization of the murine IL-23 cytokine. The test for murine IL-23 is based on the fact that purified mouse splenocytes secrete IL-17 in a dose dependent fashion, in response to the stimulation with bioactive […] IL-23 (cf. FIG. 3). One sees that the IgG fraction of rabbits immunized against the human IL-23 peptide can neutralize the biological activity of murine IL-23 in a dose-dependent fashion. Each bar represents the mean of the tests performed with the 4 purified antibodies; the standard deviation is also indicated. There are two negative controls (no mouse IL-23 and no inhibitor) and a positive control with an anti-murine IL-23 neutralizing antibody sold from the company R&D Systems (# ref: AF1619).
(§2) Four New Zealand rabbits were immunized with the cyclised peptide Y-C-KGE PAL LPD SP-C derived from the murine IL-23, similarly as in the protocol described in Example 1. The peptide was coupled with KLH via BDB and a supplementary tyrosine. The sera of the animals were purified by affinity column against protein A and the purified antibodies were tested in ELISA and in neutralisation assays. For ELISA, plates were coated either with murine or with human IL-23 and individual sera were tested at different dilutions to determine the Titer50. […]

[3] = system: collagen-induced arthritis; experiment: Collagen-induced arthritis mouse model of rheumatoid arthritis, vaccination; format: in vivo; details: DBA/1 mice
Description: The collagen-induced arthritis is a well-known model of rheumatoid arthritis, which reproduces the main features characterizing the human disease. The experimental disease is induced in the animal by two successive injections of type II bovine collagen in the tail. Clinical signs of disease occur a few days later, principally marked by a severe articular inflammation and the joint destruction. The articular inflammation can be quantified and reported as clinical scores by the person of the art: a score from 0 (no clinical sign) to 4 (total inflammation) is given for each articulation of each mouse. Groups of 10 mice are compared by the mean value of the scores obtained on […]. Similarly, the articular inflammation and destruction can be observed on histological sections of joints and be reported as histological scores by the person of the art.
DBA/1 mice (n=10 per treatment group) were vaccinated two weeks before the first injection of collagen either with the cyclised peptide derived from mIL23: C-DSD IFK GEP ALL PDS PME QL-C-Y (coupled with KLH via BDB and an additional tyrosine on the C-terminus), or with a control made of KLH alone, or with PBS alone. The injected dose in each mice corresponded to 100 μg of coupled peptide for the peptide group, and to 100 μg of KLH alone for the KLH control group, all in complete Freund's adjuvant. […]

[4] = system: experimental autoimmune encephalomyelitis; experiment: Experimental autoimmune encephalomyelitis mouse model of multiple sclerosis, vaccination; format: in vivo; details: C57BL/6 mice, 100 μg/animal s.c. 4 times, 30 days follow-up, versus carrier and PBS groups, p=0.0003
Procedure: The experimental autoimmune encephalomyelitis in mice is a well-known model of multiple sclerosis. Three groups of 12 C57BL/6 mice were injected 4-times (s.c.) either with 1/100 μg/animal of the same peptide derivative of murine IL-23 as in example 9 coupled with KLH and emulsioned in CFA for the initial immunization and IFA (ISA51) for the subsequent boosts, or with 2/the carrier protein prepared in the same conditions, or with 3/PBS alone. The injections took pace at day 0, 15, 30 and 45.
To induce the experimental disease, mice were immunized (s.c.) at two sites with 200 μg of MOG peptide 35-55 in […] of Complete Freund's Adjuvant (CFA) at day 60. On the same day and after two days, mice were injected (i.p.) with, respectively 75 and 200 ng/mouse, of pertussis toxin (List Biological Laboratories). The mice were then assessed daily for clinical signs of EAE according to the following well-known scoring method (Sinha et al., J. Immunol., 2008): 0, normal; 0.5, limp tail; 1, tail paralysis; 2, mono or paraparesis of the hind limbs; 3, mono or paraplegia of the hind limbs; 4, paraplegia of the forelimb; 5, moribund condition or death. The follow-up was done on a period of 30 days as shown (cf. FIG. 7).

human IL-23 [5] = target: T1, human IL-23; experiment: ELISA of purified rabbit antibodies on plates coated with human IL-23; format: binding; details: for Recognition of human IL-23 by antibodies raised against the peptide (ELISA): antibodies of immunized rabbits, result in words; for Average Titers50 (ELISA), SD: purified antibodies of rabbits immunized with the KLH-coupled peptide, plate coated with human IL-23, dilution yielding 50% of maximal OD
Procedure: (§3) Specific-pathogen-free New Zealand rabbits (n=4) are immunized with 100 μg of a peptide derivative of human IL-23 by five immunizations in CFA/IFA at day 0, 14, 28, 56 and 70. The peptide, whose sequence is C-GSD IFT GEP SLL PDS PVG QL-C-Y, was coupled to KLH with BDB. The sera from immunized rabbits were taken at day 82 after initial immunization, and the antibodies were purified by affinity chromatography against protein A. The purified antibodies were tested by ELISA at various dilutions and on a plate coated either by human IL-23 or by murine IL-23 (cf. FIG. 1). The mean OD value of the […] purified sera is given at the various dilutions for the ELISA tests against murine IL-23 (dotted line) and against human IL-23 (regular line).
as §1

murine IL-23 [6] = target: T2, murine IL-23; experiment: ELISA of purified rabbit antibodies on plates coated with murine IL-23; format: binding; details: antibodies of immunized rabbits, result in words
Procedure: as §3, §2

murine IL-23 [7] = target: T2, murine IL-23; experiment: Auto-antibody response against murine IL-23 in immunized mice (serum ELISA); format: in vivo; details: OF1 mice immunized intra-muscularly, 100 μg/injection, sera tested at 1/500
Procedure: A peptide of murine IL-23 is coupled to KLH in the presence of a coupling agent (BDB). The peptide has been cyclised thanks to the addition of 2 cysteine residues coupled to BDB through an additional tyrosine; its amino-acid sequence is: C-DSD IFK GEP ALL PDS PME QL-C-Y. The vaccinal composition is injected intra-muscularly […] in ten (10) OF1 mice, at a dose of 100 μg/injection once every 2 weeks at days 0, 15, 30, 45. The sera of the animals are taken after the boosts at days 20, 38, 60 and 80 and are tested by ELISA at a dilution of 1/500 and on a coating of murine IL-23. The ELISA results are given as optical density (OD450nm) values. FIG. 5 presents the mean OD450nm value obtained at each time-point for the 10 mice tested. The grey line represents the response of mice immunized with the peptide derivative of IL-23 (triangles). The dotted lines represents the response of control mice immunized with the vehicle (empty grey diamonds), and control mice immunized with the carrier protein only (empty grey squares).

Question: What does the source list for C-DSD IFK GEP ALL PDS PME QL-C?
Answer: Neutralization of the biological activity of human IL-23 (human IL-23 [1]): cross-neutralize hIL-23; Neutralization of the biological activity of murine IL-23 (murine IL-23 [2]): can neutralize mIL-23

Question: C-DSD IFK GEP ALL PDS PME QL-C-Y was tested. Which “Clinical scores of articular inflammation” value ([3]; 100 μg coupled peptide in CFA plus boosts in IFA, followed until day 80, versus KLH alone or PBS) did it give?
Answer: Its value is “statistically significant protection at the late stage of disease”.

Question: And the “Histological scores of articular inflammation and destruction” value ([3]; histological sections of joints)?
Answer: Its value is “limits the extent of both the articular inflammation and destruction at the histological level”.

Question: What about the “Clinical signs of EAE (disease activity score)” value [4] of the same substance?
Answer: The value was “statistically significant lower disease activity than the two control groups”.

Question: What does the source list for “C-GSD IFT GEP SLL PDS PVG QL-C-Y (GSDIFTGEPSLLPDSPVGQL; not fully specified; terminal cysteines and C-terminal tyrosine; listed as Homo Sapiens) [peptide derivative of human IL-23 subunit p19, region Gly105 to Leu124, with two terminal cysteines and a C-terminal tyrosine]”?
Answer: Recognition of human IL-23 by antibodies raised against the peptide (ELISA) (human IL-23 [5]): could generate antibodies recognizing the whole human IL-23 cytokine; Recognition of murine IL-23 by antibodies raised against the peptide (ELISA) (murine IL-23 [6]): could recognize the murine IL-23 cytokine; Neutralization of the biological activity of human IL-23 (human IL-23 [1]): could neutralize the biological activity of the human cytokine; Neutralization of the biological activity of murine IL-23 (murine IL-23 [2]): neutralize its biological activity

Question: What does the source list for “C-LPD SP-C-Y (CLPDSPCY; sub-sequence of seq ID NO2 with N-terminal cystein and C-terminal cystein and tyrosin) [CLPDSPC-Y, peptide 2 derived from hIL-23]”?
Answer: Average Titers50 (ELISA), SD (human IL-23 [5]): 2287 ± 175; Average % neutralization, SD (human IL-23 [1]): 39 ± 11%

Question: With “CTGEPSC (sub-sequence of seq ID NO2 with C-terminal and N-terminal cystein) [C-TGE PS-C, peptide 1 derived from hIL-23]” as the substance, how does the “Average Titers50 (ELISA), SD” value (human IL-23 [5]) read?
Answer: The value was 1758 ± 153.

Question: What about the “Average % neutralization, SD” value (human IL-23 [1]) of the same substance?
Answer: The value was 35 ± 7%.

Question: Which results are given for “DSD IFK GEP ALL PDS PME QL (DSDIFKGEPALLPDSPMEQL; Mus Musculus) [peptide derivative of mouse IL-23p19]”?
Answer: Recognition of human IL-23 by antibodies raised against the peptide (ELISA) (human IL-23 [5]): could recognize both the murine and human IL-23 cytokines; Recognition of murine IL-23 by antibodies raised against the peptide (ELISA) (murine IL-23 [6]): could recognize both the murine and human IL-23 cytokines; Generation of anti-mIL-23 antibodies in mice (murine IL-23 [7]): anti-mIL-23 Abs could be generated in mice

Reference: patent US9301997B2, “Method of vaccination for limiting articular inflammation in rheumatoid arthritis and multiple sclerosis by administering IL-23 peptides” (PEPTINOV SAS, priority 2009, dated 2016)
